Assay results from article doi:10.1101/2024.10.23.619882.

Assays:
Assay in all cases: pull-down
[1] = target: EGFP-tagged NHSL1-F1 with the two Abi binding sites mutated (human)
[2] = target: EGFP-tagged NHSL1-F1 with both FP4 motifs mutated (human)
[3] = target: EGFP-tagged NHSL1-F1 with all 11 EndoA2 binding sites mutated (human)
[4] = target: EGFP-tagged NHSL1-F1 with the 9 EndoA2 sites that do not bind Abi mutated (human)
[5] = target: EGFP-tagged NHSL1-F1 with all 11 EndoA2 binding sites and both FP4 motifs mutated (human)

## Myc-tagged wild-type EndoA2 (endophilin A2) (from UniProt O35964 1-368) (natural protein)
[1]
  fold reduction in binding against wild-type NHSL1: 5 fold
[2]
  fold reduction in binding against wild-type NHSL1: 2 fold
[3]
  fold reduction in binding against wild-type NHSL1: 5 fold
[4]
  fold reduction in binding against wild-type NHSL1: 5 fold
[5]
  fold reduction in binding against wild-type NHSL1: 5 fold
